# According to PMC2270309, “Insights into Mad2 Regulation in the Spindle Checkpoint Revealed by the Crystal Structure of the Symmetric Mad2 Dimer” (PLoS Biology, 2008):
# B1: Mad2^L13A,C79S,C106S triple mutant (natural protein, human, UniProt Q13257 1-205, looked up)
# chain: MALQLSREQGITARGSAEIVAEFFSFGINSILYQRGIYPSETFTRVQKYGLTLLVTTDLELIKYLNNVVEQLKDWLYKSSVQKLVVVISNIESGEVLERWQFDIESDKTAKDDSAPREKSQKAIQDEIRSVIRQITATVTFLPLLEVSCSFDLLIYTDKDLVVPEKWEESGPQFITNSEEVRLRSFTTTIHKVNSMVAYKIPVND
# notes: Mad2, human, coding region (205 residues), with L13A, C79S and C106S; also called Mad2^L13A dimer; symmetric C–C Mad2 dimer; source: E. coli BL21 (pGEX), purified (glutathione-Sepharose, TEV cleavage, anion exchange, gel filtration)
# B2: Mad2-binding motif of Cdc20 (domain or fragment)
# chain: EHQKAWALNLNGFDVEEAKILRLSGKPQ
# modifications: Limits not printed. 111-138 is the conventional Mad2-binding fragment of human Cdc20 around the KILR motif (129-132). Check residues come from the candidate's motif feature, not from the paper.
# Tests used:
# His6-O-Mad2^ΔN10 (human) = experiment: SEC; gel filtration of the high-salt peak (Q2) of anion exchange chromatography (holds the C-Mad2 conformer)
# Human Cdc20 = Human Cdc20 (human, UniProt Q12834 1-499); experiment: cell-based or functional assay
# Chain of Human Cdc20 (Q12834 whole entry): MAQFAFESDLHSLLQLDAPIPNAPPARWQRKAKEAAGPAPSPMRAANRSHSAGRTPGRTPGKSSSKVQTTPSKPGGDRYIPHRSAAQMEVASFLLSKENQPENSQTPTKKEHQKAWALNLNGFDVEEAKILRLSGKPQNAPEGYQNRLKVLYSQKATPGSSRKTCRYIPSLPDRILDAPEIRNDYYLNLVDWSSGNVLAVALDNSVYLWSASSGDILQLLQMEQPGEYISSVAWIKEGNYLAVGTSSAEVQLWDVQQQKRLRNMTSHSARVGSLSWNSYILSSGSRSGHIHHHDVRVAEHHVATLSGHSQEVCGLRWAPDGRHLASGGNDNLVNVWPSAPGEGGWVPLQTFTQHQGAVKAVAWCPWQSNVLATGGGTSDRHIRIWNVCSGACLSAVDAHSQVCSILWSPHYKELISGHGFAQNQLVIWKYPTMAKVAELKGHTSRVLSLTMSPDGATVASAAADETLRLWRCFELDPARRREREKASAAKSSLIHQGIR
# [1] = biological target: the molecule itself; experiment: AUC; sedimentation equilibrium at 4 °C; 0.23, 0.36 and 0.50 mg/ml; 20 mM Tris pH 8.0, 50 mM NaCl, 0.2 mM TCEP; 13,000, 17,500 and 25,000 rpm; global fit to a monomer-dimer equilibrium; dimer to monomers
# [2] = biological target: the molecule itself; experiment: SEC; gel filtration of the high-salt peak (Q2) of anion exchange chromatography (holds the C-Mad2 conformer)
# [3] = biological target: Mad2^L13A,R133A double mutant (human, UniProt Q13257 1-205, L13A | R133A); experiment: ITC
# Mad2^R133A = Mad2^R133A (human, UniProt Q13257 1-205, R133A); experiment: ITC
# [4] = biological target: Mad2^L153A (in the background of R133A) (human, UniProt Q13257 1-205, L153A | R133A); experiment: ITC
# [5] = biological target: Mad2^Y156A (in the background of R133A) (human, UniProt Q13257 1-205, Y156A | R133A); experiment: ITC
molecule,measurement,setting,value
untagged C-Mad2^ΔN10 (domain or fragment),stoichiometry N,His6-O-Mad2^ΔN10 (human),1
B1,inhibition of APC/C^Cdc20 in an in vitro reconstituted APC/C ubiquitination assay (Myc-cyclin B1); Mad2 dimers at 1–16 μM preincubated with Cdc20 for 30 min,Human Cdc20,~3 fold
same,Kd,[1],0.25 µM
same,stoichiometry N,[1],~2
same,stoichiometry N,[2],2
B2,Kd,[3],0.12 µM
same,Kd,Mad2^R133A,0.14 µM
same,Kd,[4],0.21 µM
same,Kd,[5],0.56 µM
